Data on nine molecules can be found in patent US20230279131A1 (published 2023).

For assay [1], the target named is T1, D1 domain of human IL-2Rγ extracellular domain expressed with a C-terminal myc-myc-hexahistidine tag (human).
T1 construct: whole entry is the tagged construct
T1 chain: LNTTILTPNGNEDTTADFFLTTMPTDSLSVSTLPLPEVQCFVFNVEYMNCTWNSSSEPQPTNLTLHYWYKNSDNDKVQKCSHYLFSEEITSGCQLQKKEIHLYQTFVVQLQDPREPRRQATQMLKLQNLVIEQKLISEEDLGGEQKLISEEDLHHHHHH
In words: SPR Biacore 4000, mAb captured on anti-hFc, 37°C. On the procedure: (§1) Equilibrium dissociation constants (KD values) for IL-2Rγ binding to purified anti-IL2Rγ monoclonal antibodies were determined using a Biacore 4000 instrument equipped with a real-time surface plasmon resonance biosensor. All binding studies were performed in 10 mM HEPES, 150 mM NaCl, 3 mM EDTA, and 0.05% v/v Surfactant Tween-20, pH 7.4 (HBS-ET) running buffer at 25° C. and 37° C. The Biacore sensor surface was first derivatized by amine coupling with a monoclonal mouse anti-human Fc antibody (GE, #BR-1008-39) to capture anti-IL2Rγ monoclonal antibodies.

Assay [2] addresses T1, D1 domain of human IL-2Rγ extracellular …. In words: SPR Biacore 4000, mAb captured on anti-hFc, 25°C. On the procedure: as §1
In assay [3] the target is T2, Human IL2Rγ extracellular domain expressed with a C-terminal myc-myc-hexahistidine tag (human).
T2 construct: also called hIL-2Rg-MMH; hIL-2RG-MMH
T2 chain: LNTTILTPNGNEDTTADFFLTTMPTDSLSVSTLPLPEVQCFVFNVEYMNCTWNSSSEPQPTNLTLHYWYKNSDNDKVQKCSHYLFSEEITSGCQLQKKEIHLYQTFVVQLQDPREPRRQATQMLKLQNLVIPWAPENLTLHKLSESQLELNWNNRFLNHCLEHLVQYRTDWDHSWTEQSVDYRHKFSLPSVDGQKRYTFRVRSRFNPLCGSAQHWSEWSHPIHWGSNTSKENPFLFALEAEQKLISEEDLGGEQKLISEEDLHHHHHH
In words: SPR Biacore 4000, mAb captured by anti-hFc, HBS-ET, 25C. On the procedure: as §1
A general note: Surface plasmon resonance follows binding to a sensor surface in real time, without labels.

For assay [4], the target named is T2, Human IL2Rγ extracellular domain …. Kind of assay: SPR Biacore 4000, mAb captured by anti-hFc, HBS-ET, 37C. On the procedure:
as §1

Assay [5] has as its target T3, D2 domain of human IL2Rγ extracellular domain expressed with a C-terminal myc-myc-hexahistidine tag (human).
T3 construct: whole entry is the tagged construct
T3 chain: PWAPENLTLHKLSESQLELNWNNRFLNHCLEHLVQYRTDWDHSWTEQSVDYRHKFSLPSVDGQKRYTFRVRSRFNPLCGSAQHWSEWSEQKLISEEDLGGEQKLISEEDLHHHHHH
In words: SPR Biacore 4000, mAb captured on anti-hFc, 37°C. On the procedure:
as §1

Assay [6] addresses T3, D2 domain of human IL2Rγ extracellular …. Kind of assay: SPR Biacore 4000, mAb captured on anti-hFc, 25°C. On the procedure:
as §1

The target in assay [7] is T4, human IL-2Rγ expressed on cells (human, UniProt P31785 23-369).
T4 construct: whole, on cells; endogenous receptor on human cells; also called IL-2Rgamma; CD132
T4 sequence (looked up): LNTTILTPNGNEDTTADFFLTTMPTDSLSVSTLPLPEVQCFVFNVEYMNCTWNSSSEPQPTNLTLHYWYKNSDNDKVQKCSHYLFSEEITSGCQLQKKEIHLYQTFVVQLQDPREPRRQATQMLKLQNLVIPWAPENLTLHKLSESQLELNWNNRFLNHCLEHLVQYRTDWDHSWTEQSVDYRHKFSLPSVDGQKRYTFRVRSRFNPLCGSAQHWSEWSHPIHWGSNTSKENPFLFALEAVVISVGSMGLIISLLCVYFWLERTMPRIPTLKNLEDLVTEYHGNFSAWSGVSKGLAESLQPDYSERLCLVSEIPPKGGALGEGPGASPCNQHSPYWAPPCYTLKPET
Kind of assay: flow cytometry on NK-92 cells, antibody at 10 µg/ml; low end of the range, tied to H4H12859P by Table 9-1.

Assay [8] concerns the target T4, human IL-2Rγ expressed on cells. In words: flow cytometry on NK-92 cells, antibody at 10 µg/ml; high end of the range, tied to H4H12889P by Table 9-1.
Assay [9] shares this target. Kind of assay: flow cytometry on Jurkat cells, antibody at 10 µg/ml; high end of the range, tied to H4H12889P by Table 9-1. On the technique in general: Flow cytometry measures light scatter and fluorescence of single cells or particles in a stream.
The target is the same in assay [10]. Kind of assay: flow cytometry on NK-92 cells, antibody at 10 µg/ml; low end of the range, tied to H4H13538P by Table 9-2.
Assay [11] has the same target. Kind of assay: flow cytometry on NK-92 cells, antibody at 10 µg/ml; high end of the range, tied to 'H4H13841P' (taken as H4H13541P) by Table 9-2.

B1: H4H12926P2 (antibody, human IgG4 S228P, kappa, V domains shown)
VH: QVQLQQSGPGLVKPSQTLSLTCAISGDSVSSNIAAWNWIRLSPSRGLEWLGRTFFRSTWFYDYSLSVKGRITINPDTSKNQFSLHLNSVTPEDAAVYYCARTGRRWSLDYWGQGTLVTVSS
VL: not shown
notes: anti-IL2Rγ mAb expressed with human IgG4 Fc
Take B1: the “100 nM Ag Bound” value in assay [1] came to 2 RU; in assay [2] it was 8 RU.

B2: H4H12926P2 (antibody, human IgG4 S228P, kappa, V domains shown)
VH: QVQLQQSGPGLVKPSQTLSLTCAISGDSVSSNIAAWNWIRLSPSRGLEWLGRTFFRSTWFYDYSLSVKGRITINPDTSKNQFSLHLNSVTPEDAAVYYCARTGRRWSLDYWGQGTLVTVSS
VL: not shown
notes: anti-IL2Rgamma monoclonal antibody expressed with human IgG4 Fc
Take B2: the results for the “100 nM Ag Bound” value in assay [3] and in assay [4] were 13 RU and 2 RU, respectively.

B3: H4H12874P (antibody, human IgG4 S228P, kappa, V domains shown)
VH: QVQLVESGGGVVQPGRSLRLSCAASGFNFRNFGMHWVRQAPGKGLEWVAGILYDGSSKYYADSVKDRFTISRDNSKNTLFLQMNSLRAEDTAMYYCAKEEDTAMVPFDSWGPGTLVTVSS
VL: DIQLTQSPSFLSASVGDRVTITCWASQGISSYLAWYQQKPGKAPTLLIYAASTLQSGVPSRFSGSGSGTEFTLTISSLQPEDFASYYCQQLKSYPLTFGGGTKVEIKR
notes: as for B1
B3: the “100 nM Ag Bound” value in assay [5] was determined as 2 RU; in assay [6], 10 RU.

B4: H4H12859P (antibody, human IgG4 S228P, kappa, V domains shown)
VH: QVQLVQSGAEVKKPGASVRVSCKASGYTFTDYDIHWVRQAPGHGLEWMGWINPNSGGTNYAQKFQGRVTMTRDTSISTVYMDLSRLRSDDTAVYYCARADYSSSYYYYGMDVWGQGTTVTVSS
VL: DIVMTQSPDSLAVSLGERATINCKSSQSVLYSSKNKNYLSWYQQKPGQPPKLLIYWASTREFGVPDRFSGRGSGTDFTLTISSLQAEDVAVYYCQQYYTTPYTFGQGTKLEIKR
notes: anti-IL2Rγ human antibody, human IgG4 Fc
In the case of B4, the “binding ratio (sample MFI over unstained MFI)” value (“binding ratio” below) in [7] was determined as 1 ratio.

B5: H4H12889P (antibody, human IgG4 S228P, kappa, V domains shown)
VH: EVQLVESGGGLVQPGGSLRLSCAASGFIFSSYEMHWVRQAPGKGLEWISYISSSGTTIYYADSVKGRFTISRDNAKNSLYLHMNSLRAEDTAVYYCTRARITGTFDVFDIWGQGTMVTVSS
VL: DIQMTQSPSSLSASVGDRVTITCRASQSISSYLNWYQQKPGKAPKLLIFAASNLQSGVPSRFSGSRSGTDFTLTISSLQPEDFATYYCQQNYNIPYTFGQGTKLEIKR
notes: anti-IL2Rγ human antibody, human IgG4 Fc; also called REGN7257
As for B5, the figures for the “binding ratio” value in assay [8] and in assay [9] were 94 ratio and 19 ratio, respectively.

B6: H4H13538P (antibody, human IgG4 S228P, kappa, V domains shown)
VH: EVQLVESGGGLVQPGGSLGLSCAASGFTFSNYAMSWVRQAPGKGLEWVSAVSGGGGGTYYADSVKGRFTISRDNSKNTVLLQMNSLRAEDTAVYYCARGRTGGLDYWGPGTLVTVSS
VL: DVVMTQSPLSLPVIFGQPASISCRSSQSLVDSDGNTYLNWLQQRPGQSPRRLIYEVSNRDSGVPDRFSGSGSGTDFTLTISRVEAEDVGIYYCMQGTRWPPTFGGGTKVEIKR
notes: as for B4
Take B6: in assay [10], the “binding ratio” value was determined as 1 ratio.

B7: H4H13541P (antibody, human IgG4 S228P, kappa, V domains shown)
VH: EVQLVESGGGVVRPGGSLRLSCAASGFIFDDYDMSWVRQPPGRGLEWVSGIDWFGGTRGYADSMKGRFTISRDNAKNSLYLQMNSLRVEDTAFYYCARGGAIVGAVTPFDYWGQGTLVTVSS
VL: DIQMTQSPSSLSASVGNRVTLSCRASQSINTYLSWYQQRPGKAPKLLIYAASSLQSGVPSRFSGSGAGTDFTLTISSLQPEDFATYYCQQSYSAPLTFGGGTKVEIKR
notes: anti-IL2Rγ human antibody, human IgG4 Fc; also called H4H13841P
For B7, in assay [11], the “binding ratio” value came out at 37 ratio.

B8: H4H12927P2 (antibody, human IgG4 S228P, kappa, V domains shown)
VH: EVQLVESGGGVVRPGGSLRLSCATSGFTFDDYGMSWVRQVPGKGLEWVSSVNRNGGTTDYADSVKGRFTISRDNAKRSLFLQMNSLRAEDTALYHCATGELFFDYWGQGTLVTVSS
VL: not shown
notes: as for B1
Turning to B8, the figures for the “100 nM Ag Bound” value in assay [5] and in assay [6] were 2 RU and 14 RU, respectively.

B9: H4H12927P2 (antibody, human IgG4 S228P, kappa, V domains shown)
VH: EVQLVESGGGVVRPGGSLRLSCATSGFTFDDYGMSWVRQVPGKGLEWVSSVNRNGGTTDYADSVKGRFTISRDNAKRSLFLQMNSLRAEDTALYHCATGELFFDYWGQGTLVTVSS
VL: not shown
notes: as for B2
As for B9, the “100 nM Ag Bound” value in [3] turned out to be 18 RU; in assay [4], 5 RU.
